For assay [1], the target named is FcγRIIIa (CD16) on Natural Killer (NK) cells (UniProt P08637). Kind of assay: FACS on NK cells (CD56+) in PBMCs, antibody 20 µg/ml, FITC anti-human IgG (Fc) detection.
The target in assay [2] is Positive Control (Table 3). Briefly: SPR solution competition: soluble CD16a (0-1000 nM) inhibits binding of 10 nM analyte to immobilized His-CD16a.
For assay [3], the target named is afucosylated anti-CCR5 antibody (afucosylated Ab). Kind of assay: SPR solution competition: soluble CD16a (0-1000 nM) inhibits binding of 10 nM antibody to immobilized His-CD16a.
In assay [4] the target is wildtype anti-CCR5 antibody (WT Ab, 8% afucosylated). The description is as above.

In general, IC50 refers to the point on the concentration scale where inhibition reaches its midpoint. A higher IC50 goes with lower potency.

UniProt P08637, sequence (P08637 17-254 limits assumed): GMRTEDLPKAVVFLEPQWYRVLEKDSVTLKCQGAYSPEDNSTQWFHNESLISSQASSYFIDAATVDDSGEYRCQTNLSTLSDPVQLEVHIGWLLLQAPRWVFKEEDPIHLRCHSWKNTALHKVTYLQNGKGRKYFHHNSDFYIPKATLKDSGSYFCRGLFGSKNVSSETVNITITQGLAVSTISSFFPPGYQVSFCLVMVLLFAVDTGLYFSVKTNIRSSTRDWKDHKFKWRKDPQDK

“human IgG4 (The Binding Site) (antibody)”: the Bmax compared to 100% Bmax for human IgG1 in assay [1] is less than 30%.
Turning to “soluble CD16a (from UniProt P08637 17-208) (receptor)”, the half-maximal inhibitory concentration (IC50) came to 10 nM in assay [2], 9 nM in assay [3] and 14 nM in assay [4].

The record behind these values is patent publication US20090226434A1.
